The source of these data is paper PMC9765508, “Metabolic Promiscuity of an Orphan Small Alarmone Hydrolase Facilitates Bacterial Environmental Adaptation” (mBio, 2022).

Series [1] has as its system Nc1nc2c(ncn2[C@@H]2O[C@H](COP(=O)(O)OP(=O)(O)OP(=O)(O)O)[C@@H](OP(=O)(O)OP(=O)(O)O)[C@H]2O)c(=O)[nH]1. As to the kind of experiment: purified protein. Format: biochemical, Xanthomonas campestris. The conditions noted are these: 20 mM Tris-HCl pH 7.5, 1 mM MnCl2, 37 °C, 50 nM enzyme.
Series [2] relates to Nc1nc2c(ncn2[C@@H]2O[C@H](COP(=O)(O)O)[C@@H](OP(=O)(O)OP(=O)(O)O)[C@H]2O)c(=O)[nH]1. In words: purified protein. The class given is biochemical, Xanthomonas campestris. The conditions noted are these: 20 mM Tris-HCl pH 7.5, 1 mM MnCl2, 37 °C, 50 nM enzyme.
The test system of series [3] is Nc1nc2c(ncn2[C@@H]2O[C@H](COP(=O)(O)OP(=O)(O)O)[C@@H](OP(=O)(O)OP(=O)(O)O)[C@H]2O)c(=O)[nH]1. In words: purified protein. Format: biochemical, Xanthomonas campestris. The conditions noted are these: 20 mM Tris-HCl pH 7.5, 1 mM MnCl2, 37 °C, 50 nM enzyme.
The test system of series [4] is Nc1ncnc2c1ncn2[C@@H]1O[C@H](COP(=O)(O)OP(=O)(O)OP(=O)(O)O)[C@@H](OP(=O)(O)OP(=O)(O)O)[C@H]1O. As to the kind of experiment: purified protein. The conditions noted are these: 20 mM Tris-HCl pH 7.5, 1 mM MnCl2, 37 °C, 25 nM enzyme. Format: biochemical, Xanthomonas campestris.
The next series concerns the target T1, B. subtilis Rel (Bacillus subtilis, UniProt O54408).
T1 construct: gene relA; purified; construct and tag not described
As to the kind of experiment: […]-labelled nucleotide hydrolysis, TLC. Format: biochemical. The conditions noted are these: 20 mM Tris-HCl pH 7.5, 1 mM MnCl2, 37 °C, 240 nM enzyme; labelled compound.

Substrate in series [5]: NC(=O)C1=CN([C@@H]2O[C@H](COP(=O)(O)OP(=O)(O)OC[C@H]3O[C@@H](n4cnc5c(N)ncnc54)[C@H](OP(=O)(O)O)[C@@H]3O)[C@@H](O)[C@H]2O)C=CC1
In words: phosphate release, malachite green assay, Michaelis-Menten fit. The class given is biochemical, Xanthomonas campestris. The conditions noted are these: 20 mM Tris-HCl pH 8, 1 mM MnCl2, 37 °C, 1 μM enzyme. From the text: phosphate release, malachite green assay, Michaelis-Menten fit on XccSAH

T1 sequence (O54408 whole entry): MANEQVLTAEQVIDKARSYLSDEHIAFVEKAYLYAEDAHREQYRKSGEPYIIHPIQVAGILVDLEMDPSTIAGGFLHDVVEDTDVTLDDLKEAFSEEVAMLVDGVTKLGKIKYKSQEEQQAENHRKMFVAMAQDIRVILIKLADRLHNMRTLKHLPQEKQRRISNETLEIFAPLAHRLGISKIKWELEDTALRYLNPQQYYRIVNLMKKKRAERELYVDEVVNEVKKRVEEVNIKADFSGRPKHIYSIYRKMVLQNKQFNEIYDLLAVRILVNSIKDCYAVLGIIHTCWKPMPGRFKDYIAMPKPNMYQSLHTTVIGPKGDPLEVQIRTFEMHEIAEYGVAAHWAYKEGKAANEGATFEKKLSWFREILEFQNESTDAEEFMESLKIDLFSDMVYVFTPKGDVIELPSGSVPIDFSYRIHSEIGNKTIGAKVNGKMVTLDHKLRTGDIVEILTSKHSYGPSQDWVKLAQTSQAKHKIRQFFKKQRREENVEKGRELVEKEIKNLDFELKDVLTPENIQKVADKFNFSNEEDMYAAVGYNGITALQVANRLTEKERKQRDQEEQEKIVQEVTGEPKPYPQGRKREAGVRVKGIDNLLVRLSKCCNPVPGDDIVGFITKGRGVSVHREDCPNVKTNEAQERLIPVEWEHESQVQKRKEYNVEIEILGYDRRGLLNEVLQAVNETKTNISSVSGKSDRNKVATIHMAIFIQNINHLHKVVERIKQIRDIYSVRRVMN

Consider “XccSAH (Xanthomonas campestris pv. campestris str. ATCC 33913)”, for which, in series [1], the Km was found to be 29.14 ± 4.41 µM, the Vmax is 42.9 µM/min, the kcat stood at 14.3 ± 1.45 s⁻¹ and the kcat/Km came to 493000 ± 25000 M⁻¹ s⁻¹. Moreover, in series [2], the Km came to 19.73 ± 4.75 µM, the Vmax stood at 4.89 µM/min, the kcat was found to be 1.63 ± 0.07 s⁻¹ and the kcat/Km is 86000 ± 18000 M⁻¹ s⁻¹. In series [3], the Km was found to be 14.13 ± 2.02 µM, the Vmax worked out at 21 µM/min, the kcat was determined as 6.99 ± 0.15 s⁻¹ and the specificity constant (kcat/Km) was determined as 500000 ± 82000 M⁻¹ s⁻¹. Also, in series [4], the Km came to 45.82 ± 3.87 µM, the Vmax stood at 73.1 µM/min, the kcat was determined as 48.8 ± 2.99 s⁻¹ and the kcat/Km worked out at 1.07e+06 ± 75000 M⁻¹ s⁻¹.
Consider `Nc1nc2c(ncn2[C@@H]2O[C@H](COP(=O)(O)O)[C@@H](OP(=O)(O)OP(=O)(O)O)[C@H]2O)c(=O)[nH]1` [pGpp], for which the “32P-labelled nucleotide hydrolysis, TLC” value on B. subtilis Rel is recorded as “We found that B. subtilis Rel could also hydrolyze pGpp to GMP”.

B1: XccSAH (Xanthomonas campestris pv. campestris str. ATCC 33913) (protein)
chain: MTALTERYAQAVDYARIAHAGQLRKGTQIPYLSHLLGVSTLVLECGGDEDQAIAGLLHDVVEDCGGGHEGSIRAQFGDAVADIVMACTDATAEDKADVDNTASARKRDWRERKQSYLAHLRKTPERALLVSGCDKLYNARTIVQDLENPDVGQEIFNVFTAGRDGTLWYYAALEEIFRTRKAATARLFSGVVARMQALADSSIDTVPAHAVA
On to B1, for which, in series [5], the Km worked out at 132.2 ± 39.09 µM, the Vmax was determined as 2.88 µM/min, the catalytic constant (kcat) amounted to 0.048 ± 0.004 s⁻¹ and the kcat/Km turned out to be 363 ± 20 M⁻¹ s⁻¹.

As a reminder, the Km is the substrate concentration at which the rate is half of its maximum. The Vmax is the rate approached at saturating substrate. In general, kcat refers to the maximal rate divided by the concentration of active sites. Usually kcat/Km stands for the turnover number divided by the Michaelis constant.
